# Results published in patent publication US20220265819A1 (GEN2 NEUROSCIENCE, published 2022).
# Tests used:
# [1] = molecular target: T1, full length recombinant human 2N4R tau (amino acids 1-441) (human, UniProt P10636 1-758); test: SPR Biacore SCK, IgG on Protein A, tau analyte
# T1 construct: Bought (rPeptide); recombinant, non-phosphorylated; also called recombinant tau
# Experimental: 23.5 Assessment of antibody binding to tau (Biacore SCK analysis): Binding of anti-tau hIgG1 to full length recombinant 2N4R tau (Rpeptide; SEQ ID NO: 2) was assessed using the Biacore T200 (GE Healthcare, Chicago, Ill., USA) running Biacore T200 Evaluation Software V2.0.1. hIgG1 were immobilised on a Protein A capture sensor chip in running buffer (HBS-EP+ buffer containing 1 mg/mL BSA) at 25° C. captured to ˜50 RU at 10 μL/min. For single-cycle kinetics experiments, recombinant 2N4R tau was flowed at concentrations ranging from 5 nM to 40 nM (2-fold dilutions) with an association time of 150 s and a dissociation time of 200 s. Curves were compared to a reference cell that was mock immobilized (no antibody present).
# Data were analysed using Langmuir (1:1) binding analysis, describing a 1:1 interaction at the surface: […]
# Bovine serum albumin = molecular target: T2, Bovine serum albumin (bovine, UniProt P02769 25-607); test: ELISA on 1% BSA, HEK supernatant, anti-human IgG-HRP, n=1
# T2 construct: Negative control antigen in ELISA; also called BSA
# Experimental: Antigen was removed from wells and the plates were then blocked for 1 hour at RT with 5% dried milk in 1×TBS. Blocking solution was removed, HEK293 cell supernatant (1:100 in 1% BSA/1×TBS) was added to relevant wells, and plates were incubated for 1 hour at RT with gentle shaking. Plates were then washed four times with TBS/0.1% Tween (TBST). Goat-anti-human IgG-HRP antibody (ThermoFisher Scientific, Waltham, Mass. USA), diluted 1:2000 in 5% milk/TBS, was added to each well and plates were incubated for 1 hour at RT with gentle shaking before being washed four times with TBST. 3,3′,5,5′-tetramethylbenzidine (TMB) ELISA solution was added to each well and plates were incubated for 15 mins at RT. An equal volume of 1 M sulfuric acid was added to each well and OD was measured at 450 nm.
# T2 sequence (P02769 25-607 limits assumed): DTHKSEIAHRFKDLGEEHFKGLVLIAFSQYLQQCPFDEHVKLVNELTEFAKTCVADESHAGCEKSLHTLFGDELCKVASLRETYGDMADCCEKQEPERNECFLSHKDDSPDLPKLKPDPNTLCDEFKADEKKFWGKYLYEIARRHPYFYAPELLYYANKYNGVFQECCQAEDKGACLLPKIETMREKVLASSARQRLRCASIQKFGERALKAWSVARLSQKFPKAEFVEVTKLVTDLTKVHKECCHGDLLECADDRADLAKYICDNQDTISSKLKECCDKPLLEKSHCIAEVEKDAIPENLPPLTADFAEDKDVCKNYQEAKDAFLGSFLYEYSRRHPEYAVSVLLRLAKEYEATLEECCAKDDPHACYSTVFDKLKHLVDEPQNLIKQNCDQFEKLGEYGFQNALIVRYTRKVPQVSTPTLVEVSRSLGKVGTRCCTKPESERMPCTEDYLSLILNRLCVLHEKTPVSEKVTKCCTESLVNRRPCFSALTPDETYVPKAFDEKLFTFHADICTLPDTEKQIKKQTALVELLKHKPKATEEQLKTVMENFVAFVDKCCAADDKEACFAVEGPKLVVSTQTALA
# T1 sequence (P10636 other isoform, or with tags, fused parts or gaps limits assumed): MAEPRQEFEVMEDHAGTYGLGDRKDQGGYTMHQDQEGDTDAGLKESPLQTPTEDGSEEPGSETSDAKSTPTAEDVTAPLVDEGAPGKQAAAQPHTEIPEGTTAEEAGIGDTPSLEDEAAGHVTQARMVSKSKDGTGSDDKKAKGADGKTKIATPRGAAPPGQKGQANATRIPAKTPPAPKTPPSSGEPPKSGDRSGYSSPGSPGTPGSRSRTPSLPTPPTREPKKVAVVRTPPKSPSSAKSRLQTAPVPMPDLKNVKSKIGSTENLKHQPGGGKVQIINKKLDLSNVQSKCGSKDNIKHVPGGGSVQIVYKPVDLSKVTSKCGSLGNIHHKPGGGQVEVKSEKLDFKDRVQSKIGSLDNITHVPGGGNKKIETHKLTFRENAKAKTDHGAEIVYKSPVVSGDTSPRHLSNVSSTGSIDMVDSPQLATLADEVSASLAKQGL
Binder,Kd [1],Relative KD [1],koff [1],kon [1],binding result (Bovine serum albumin)
"Clone 26 (VH4Vκ1), humanised variant of clone #28, human IgG1 (antibody, V domains shown, also called VH4VK1) VH: QVQLQESGPGLVKPSETLSLTCTVSGFSLNNYDMSWVRQAPGKGLEWIGTVSTTYRRYYASWAKGRFTISKDTSSTTVDLQMTSLTAEDTATYFCAASGIWGRGTLVTVSS VL: AQVLTQSTSPLSASVGDRVTITCQSSQRVYSNYLAWYQQKPGQPPKRLIFLASTLESGVPSRFSGSGSGTEFTLTISSLQCDDFATYYCAGTYTGSIWAFGGGTEVVIK",57.6 nM,1.27 fold vs VH0VK0,0.00336 s⁻¹,58300 M⁻¹ s⁻¹,no binding (tested: supernatant 1:100)
"Clone 23 (VH3Vκ2), humanised variant of clone #28, human IgG1 (antibody, V domains shown, also called VH3VK2) VH: QVQLQESGPGLVKPSETLSLTCTVSGFSLNNYDMSWVRQAPGKGLEWIGTVSTTYRRYYASWAKGRFTISKTSSTTVDLQMTSLTAEDTATYFCAASGIWGRGTLVTVSS VL: AQVLTQSPSTLSASVGDRVTITCQSSQRVYSNYLAWYQQKPGQPPKRLIFLASTLESGVPSRFSGSGSGTEFTLTISSLQPDDFATYYCAGTYTGSIWAFGGGTKVEIK",51.3 nM,1.13 fold vs VH0VK0,0.00253 s⁻¹,49400 M⁻¹ s⁻¹,no binding (tested: supernatant 1:100)
"Clone 15 (VH1Vκ2), humanised variant of clone #28, human IgG1 (antibody, V domains shown, also called VH1VK2) VH: QSLQESGGGLVKPSETLSLTCTVSGFSLNNYDMSWVRQAPGKGLEWIGTVSTTYRRYYASWAKGRFTISKTSSTTVDLKMTSLTAEDTATYFCAASGIWGRGTLVTVSS VL: AQVLTQSPSTLSASVGDRVTITCQSSQRVYSNYLAWYQQKPGQPPKRLIFLASTLESGVPSRFSGSGSGTEFTLTISSLQPDDFATYYCAGTYTGSIWAFGGGTKVEIK",44.1 nM,0.97 fold vs VH0VK0,0.00294 s⁻¹,66800 M⁻¹ s⁻¹,no binding (tested: supernatant 1:100)
"Clone 37 (VH6Vκ5), humanised variant of clone #28, human IgG1 (antibody, V domains shown, also called VH6VK5) VH: QVQLQESGPGLVKPSETLSLTCTVSGFSLNNYDMSWVRQAPGKGLEWIGTVSTTYRRYYADSVKGRFTISRDNSKNTLDLQMTSLTAEDTATYFCAASGIWGRGTLVTVSS VL: DIQMTQSPSTLSASVGDRVTITCQSSQRVSSSYLAWYQQKPGQPPKRLIFLASTLESGVPSRFSGSGSGTEFTLTISSLQPDDFATYYCAGTYTGSIWAFGGGTKVEIK",123 nM,2.72 fold vs VH0VK0,0.00544 s⁻¹,44300 M⁻¹ s⁻¹,no binding (tested: supernatant 1:100)
"Clone 30 (VH5Vκ1), humanised variant of clone #28, human IgG1 (antibody, V domains shown, also called VH5VK1) VH: QVQLQESGPGLVKPSETLSLTCTVSGFSLNNYDMSWVRQAPGKGLEWIGTVSTTYRRYYASWAKGRFTISRDNSKNTLDLQMTSLTAEDTATYFCAASGIWGRGTLVTVSS VL: AQVLTQSTSPLSASVGDRVTITCQSSQRVYSNYLAWYQQKPGQPPKRLIFLASTLESGVPSRFSGSGSGTEFTLTISSLQCDDFATYYCAGTYTGSIWAFGGGTEVVIK",75.7 nM,1.67 fold vs VH0VK0,0.00351 s⁻¹,46300 M⁻¹ s⁻¹,no binding (tested: supernatant 1:100)
"Clone 34 (VH6Vκ1), humanised variant of clone #28, human IgG1 (antibody, V domains shown, also called VH6VK1) VH: QVQLQESGPGLVKPSETLSLTCTVSGFSLNNYDMSWVRQAPGKGLEWIGTVSTTYRRYYADSVKGRFTISRDNSKNTLDLQMTSLTAEDTATYFCAASGIWGRGTLVTVSS VL: AQVLTQSTSPLSASVGDRVTITCQSSQRVYSNYLAWYQQKPGQPPKRLIFLASTLESGVPSRFSGSGSGTEFTLTISSLQCDDFATYYCAGTYTGSIWAFGGGTEVVIK",141 nM,3.11 fold vs VH0VK0,0.00525 s⁻¹,37300 M⁻¹ s⁻¹,no binding (tested: supernatant 1:100)
"Clone 33 (VH5Vκ5), humanised variant of clone #28, human IgG1 (antibody, V domains shown, also called VH5VK5) VH: QVQLQESGPGLVKPSETLSLTCTVSGFSLNNYDMSWVRQAPGKGLEWIGTVSTTYRRYYASWAKGRFTISRDNSKNTLDLQMTSLTAEDTATYFCAASGIWGRGTLVTVSS VL: DIQMTQSPSTLSASVGDRVTITCQSSQRVSSSYLAWYQQKPGQPPKRLIFLASTLESGVPSRFSGSGSGTEFTLTISSLQPDDFATYYCAGTYTGSIWAFGGGTKVEIK",60.6 nM,1.34 fold vs VH0VK0,0.00354 s⁻¹,58400 M⁻¹ s⁻¹,no binding (tested: supernatant 1:100)
"Clone 29 (VH4Vκ5), humanised variant of clone #28, human IgG1 (antibody, V domains shown, also called VH4VK5) VH: QVQLQESGPGLVKPSETLSLTCTVSGFSLNNYDMSWVRQAPGKGLEWIGTVSTTYRRYYASWAKGRFTISKDTSSTTVDLQMTSLTAEDTATYFCAASGIWGRGTLVTVSS VL: DIQMTQSPSTLSASVGDRVTITCQSSQRVSSSYLAWYQQKPGQPPKRLIFLASTLESGVPSRFSGSGSGTEFTLTISSLQPDDFATYYCAGTYTGSIWAFGGGTKVEIK",114 nM,2.52 fold vs VH0VK0,0.00409 s⁻¹,35900 M⁻¹ s⁻¹,no binding (tested: supernatant 1:100)
"Clone 22 (VH3Vκ1), humanised variant of clone #28, human IgG1 (antibody, V domains shown, also called VH3VK1) VH: QVQLQESGPGLVKPSETLSLTCTVSGFSLNNYDMSWVRQAPGKGLEWIGTVSTTYRRYYASWAKGRFTISKTSSTTVDLQMTSLTAEDTATYFCAASGIWGRGTLVTVSS VL: AQVLTQSTSPLSASVGDRVTITCQSSQRVYSNYLAWYQQKPGQPPKRLIFLASTLESGVPSRFSGSGSGTEFTLTISSLQCDDFATYYCAGTYTGSIWAFGGGTEVVIK",43.9 nM,0.97 fold vs VH0VK0,0.00249 s⁻¹,56700 M⁻¹ s⁻¹,no binding (tested: supernatant 1:100)
"Clone 25 (VH3Vκ5), humanised variant of clone #28, human IgG1 (antibody, V domains shown, also called VH3VK5) VH: QVQLQESGPGLVKPSETLSLTCTVSGFSLNNYDMSWVRQAPGKGLEWIGTVSTTYRRYYASWAKGRFTISKTSSTTVDLQMTSLTAEDTATYFCAASGIWGRGTLVTVSS VL: DIQMTQSPSTLSASVGDRVTITCQSSQRVSSSYLAWYQQKPGQPPKRLIFLASTLESGVPSRFSGSGSGTEFTLTISSLQPDDFATYYCAGTYTGSIWAFGGGTKVEIK",38.9 nM,0.86 fold vs VH0VK0,0.00316 s⁻¹,81300 M⁻¹ s⁻¹,no binding (tested: supernatant 1:100)
"Clone 36 (VH6Vκ4), humanised variant of clone #28, human IgG1 (antibody, V domains shown, also called VH6VK4) VH: QVQLQESGPGLVKPSETLSLTCTVSGFSLNNYDMSWVRQAPGKGLEWIGTVSTTYRRYYADSVKGRFTISRDNSKNTLDLQMTSLTAEDTATYFCAASGIWGRGTLVTVSS VL: DIQMTQSPSTLSASVGDRVTITCQSSQRVYSNYLAWYQQKPGQPPKRLIFLASTLESGVPSRFSGSGSGTEFTLTISSLQPDDFATYYCAGTYTGSIWAFGGGTKVEIK",123 nM,2.72 fold vs VH0VK0,0.00406 s⁻¹,33100 M⁻¹ s⁻¹,no binding (tested: supernatant 1:100)
"Clone 35 (VH6Vκ2), humanised variant of clone #28, human IgG1 (antibody, V domains shown, also called VH6VK2) VH: QVQLQESGPGLVKPSETLSLTCTVSGFSLNNYDMSWVRQAPGKGLEWIGTVSTTYRRYYADSVKGRFTISRDNSKNTLDLQMTSLTAEDTATYFCAASGIWGRGTLVTVSS VL: AQVLTQSPSTLSASVGDRVTITCQSSQRVYSNYLAWYQQKPGQPPKRLIFLASTLESGVPSRFSGSGSGTEFTLTISSLQPDDFATYYCAGTYTGSIWAFGGGTKVEIK",222 nM,4.9 fold vs VH0VK0,0.00533 s⁻¹,24000 M⁻¹ s⁻¹,no binding (tested: supernatant 1:100)
